Source: patent US20230280350A1 (NORDIC BIOSCIENCE A S, published 2023)
No end group written: not given here. *: point of attachment. Biotin = O=C1N[C@H]2[C@H](CS[C@H]2CCCCC(=O)*)N1

Tests used:
[1] = biological target: T1, Elongated peptide PMKTMKGPFGG; test: competitive ELISA, peptide against coated Biotin-K-PMKTMKGPFG
T1 construct: Selection peptide with one extra glycine at the C-terminus
T1 peptide: PMKTMKGPFGG
Excerpt: (§1) The PRO-C16 amino acid sequence 1595′-[…] (SEQ ID NO: 1) located at the C-terminal was used to generate an antibody specific for the C-terminal of col-16. It was additionally used to design the selection peptide ([…]; SEQ ID NO: 1) (Table 1). The sequence was BLASTed for homology to other human proteins and species using the NPS@: network protein sequence analysis with the Uniprot/Swiss-Prot database (20). The amino acid sequence is unique to human col-16. A biotinylated peptide (Biotin-K-[…]) was used to coat the streptavidin-coated plates applied in the ELISA. An elongated peptide ([…]; SEQ ID NO: 2), a truncated peptide ([…]; SEQ ID NO: 3), a nonsense peptide ([…]; SEQ ID NO: 5) and a nonsense biotinylated peptide (Biotin-[…]; SEQ ID NO: 6) were included to test the specificity of the antibody.
(§2) The PRO-C16 competitive ELISA procedure was as follows; a 96-well streptavidin-coated microtiter plate was coated with 100 µl of biotinylated peptide (Biotin-K-[…]; SEQ ID NO: 4) dissolved in assay buffer (50 mM PBS-BTB, 4 g/l NaCl, pH 7.4) (final concentration of […]). The plate was incubated for 30 minutes at 20° C. with shaking (300 rpm) and then washed five times in washing buffer (20 mM TRIS, 50 mM NaCl, pH 7.2). A volume of 20 µl of sample/control/selection peptide ([…]; SEQ ID NO: 1) was added followed by immediately addition of 100 µl of monoclonal antibody diluted in assay buffer (final concentration of 62.5 ng/ml). The plate was incubated for 1 hour at 20° C. with shaking followed by five washes in washing buffer. Then, 100 µl of goat anti-mouse HRP-conjugated IgG antibody (Thermo Scientific, Waltham, MA, USA; cat. #31437) diluted in assay buffer (final concentration of 130 ng/ml) was added to each well. […] To stop the reaction of TMB, 100 µl of 1% H₂SO₄ was added and the plate was analyzed in a VersaMax ELISA microplate reader at 450 nm with 650 nm as reference. A standard curve was plotted using a 4-parametric mathematical fit model and data were analyzed using the Softmax Pro v. […]

[2] = biological target: T2, Truncated peptide PMKTMKGPF; test: competitive ELISA, peptide against coated Biotin-K-…
T2 construct: Selection peptide without its C-terminal glycine
T2 peptide: PMKTMKGPF
Excerpt: as §1, §2

[3] = biological target: T3, Nonsense peptide VPKDLPPDTT (not fully specified); test: as above
T3 construct: Control peptide
T3 peptide: VPKDLPPDTT
Excerpt: as §1, §2

[4] = biological target: T4, Nonsense biotinylated peptide Biotin-VPKDLPPDTT; test: ELISA with the nonsense biotinylated peptide on streptavidin plates
T4 construct: Control coating peptide
T4 peptide: Biotin-VPKDLPPDTT

Measured: binding result

B1: monoclonal antibody of the PRO-C16 assay, raised against KLH-CGG-… (antibody, mouse IgG2b, kappa, V domains shown)
VH: EVQLQQSGAELVRSGASVKLSCTASGFNIKDYYIHWVKQRPEQGLEWIGWIDHDNGDTEYDPKFQGKATLTADTSSNTAYLQLSSLTSEDTAVYYCNAKGPRYGYEEDWFAYWGQGTLVTVST
VL: DVLMTQTPLSLPVSLGDQASISCRSSQSIVHNNGNTYLEWFLQKPGQSPKLLIYKVSNRFSGVPDRFSGSGSGTDFTLRISRVEADDLGVYYCFQGSHVPRTFGGGTKLEIKR
notes: also called PRO-C16 antibody; C16-C
no binding: [1] | [2] | [3] | [4]
